Here are results for one substance from PMC2156165.

The target in the assay is γ-tubulin of pig brain γ-tubulin complexes (pig (endogenous in brain)). The assay is described as follows: quantitative immunoblot of the purified complexes. (In general: In western blotting, separated proteins are transferred to a membrane and probed.)

“76p of pig brain γ-tubulin complexes (76-kD polypeptide, pig orthologue of h76p = hGCP4) (natural protein)” returned an abundance of 76p against γ-tubulin in the purified complexes of 5 fold.
